{
  "source": "patent US20170087188A1",
  "about": "“WNT INDUCED MOTILITY AND ENHANCED ENGRAFTMENT OF CELLS” (OTTAWA HOSPITAL RESEARCH INSTITUTE, priority 2014, published 2017)",
  "key": {"[1]": {"molecular_target": "Fzd7 (endogenous, mouse myogenic cells) (mouse) (UniProt Q61090)", "assay": "cell-based or functional assay"}, "[2]": {"molecular_target": "Fzd7-YFP (CMV-Fzd7-EYFP)", "assay": "cell-based or functional assay"}},
  "data": [
    {"substance": "Wnt7a (R&D Systems) (ligand)", "values": [
      {"measurement": "abundance of triangular polarized C2C12 cells", "setting": "[1]", "result": 111, "unit": "% increase"},
      {"measurement": "directional persistence of satellite cells on single myofibers (time lapse imaging)", "setting": "[1]", "result": 36, "unit": "% higher"},
      {"measurement": "mean velocity of satellite cells on single myofibers (time lapse imaging)", "setting": "[1]", "result": 31, "unit": "% increase"},
      {"measurement": "migration of C2C12 cells in scratch assay", "setting": "[1]", "result": 443, "unit": "% increase"},
      {"measurement": "migration of satellite cell derived mouse primary myoblasts in scratch assay", "setting": "[1]", "result": 136, "unit": "% increase"},
      {"measurement": "cell polarization of Fzd7-YFP expressing C2C12 cells", "setting": "[2]", "result": 167, "unit": "% increase"}
    ]}
  ]
}
